Data taken from patent US20220339270A1.

Key:
[1] = target: ePHF tau (tau in the form of paired helical filaments, immobilized on plate) (UniProt P10636); assay: ePHF tau ELISA; 333.3 ng/mL; rep 1
[2] = target: ePHF tau (tau in the form of paired helical filaments, immobilized on plate) (UniProt P10636); assay: ePHF tau ELISA; […]; rep 1
[3] = target: ePHF tau (tau in the form of paired helical filaments, immobilized on plate) (UniProt P10636); assay: ePHF tau ELISA; 0.5 ng/mL; rep 1
[4] = target: ePHF tau (tau in the form of paired helical filaments, immobilized on plate) (UniProt P10636); assay: ePHF tau ELISA; 111.1 ng/mL; rep 2
[5] = target: ePHF tau (tau in the form of paired helical filaments, immobilized on plate) (UniProt P10636); assay: ePHF tau ELISA; 4.1 ng/mL; rep 1
[6] = target: ePHF tau (tau in the form of paired helical filaments, immobilized on plate) (UniProt P10636); assay: ePHF tau ELISA; 12.3 ng/mL; rep 2
[7] = target: ePHF tau (tau in the form of paired helical filaments, immobilized on plate) (UniProt P10636); assay: ePHF tau ELISA; […]; rep 2
[8] = target: ePHF tau (tau in the form of paired helical filaments, immobilized on plate) (UniProt P10636); assay: ePHF tau ELISA; 333.3 ng/mL; rep 2
[9] = target: ePHF tau (tau in the form of paired helical filaments, immobilized on plate) (UniProt P10636); assay: ePHF tau ELISA; 111.1 ng/mL; rep 1
[10] = target: ePHF tau (tau in the form of paired helical filaments, immobilized on plate) (UniProt P10636); assay: ePHF tau ELISA; 1000.0 ng/mL; rep 2
[11] = target: ePHF tau (tau in the form of paired helical filaments, immobilized on plate) (UniProt P10636); assay: ePHF tau ELISA; 37.0 ng/mL; rep 2
[12] = target: ePHF tau (tau in the form of paired helical filaments, immobilized on plate) (UniProt P10636); assay: ePHF tau ELISA; 4.1 ng/mL; rep 2
[13] = target: ePHF tau (tau in the form of paired helical filaments, immobilized on plate) (UniProt P10636); assay: ePHF tau ELISA; 0.5 ng/mL; rep 2
[14] = target: ePHF tau (tau in the form of paired helical filaments, immobilized on plate) (UniProt P10636); assay: ePHF tau ELISA; 12.3 ng/mL; rep 1
[15] = target: ePHF tau (tau in the form of paired helical filaments, immobilized on plate) (UniProt P10636); assay: ePHF tau ELISA; 37.0 ng/mL; rep 1
[16] = target: ePHF tau (tau in the form of paired helical filaments, immobilized on plate) (UniProt P10636); assay: ePHF tau ELISA; 1000.0 ng/mL; rep 1
[17] = target: wild-type tau (Tau441) (human) (UniProt P10636); assay: ELISA, Tau441 on plate; antibody at 12.3 ng/mL
[18] = target: wild-type tau (Tau441) (human) (UniProt P10636); assay: ELISA, Tau441 on plate; antibody at 4.1 ng/mL
[19] = target: wild-type tau (Tau441) (human) (UniProt P10636); assay: ELISA, Tau441 on plate; antibody at 1000.0 ng/mL
[20] = target: wild-type tau (Tau441) (human) (UniProt P10636); assay: ELISA, Tau441 on plate; antibody at 0.0 ng/mL [sic]
[21] = target: wild-type tau (Tau441) (human) (UniProt P10636); assay: ELISA, Tau441 on plate; antibody at 333.3 ng/mL
[22] = target: wild-type tau (Tau441) (human) (UniProt P10636); assay: ELISA, Tau441 on plate; antibody at […]
[23] = target: wild-type tau (Tau441) (human) (UniProt P10636); assay: ELISA, Tau441 on plate; antibody at 37.0 ng/mL
[24] = target: wild-type tau (Tau441) (human) (UniProt P10636); assay: ELISA, Tau441 on plate; antibody at 111.1 ng/mL
[25] = target: extracellular tau in the form of paired helical filaments (ePHF tau) (UniProt P10636); assay: anti-eTau ELISA of ExpiCHO supernatant, concentration of tau-binding antibody
Sequence of extracellular tau in the form of paired helical filaments (ePHF tau) (P10636 other isoform, or with tags, fused parts or gaps limits assumed): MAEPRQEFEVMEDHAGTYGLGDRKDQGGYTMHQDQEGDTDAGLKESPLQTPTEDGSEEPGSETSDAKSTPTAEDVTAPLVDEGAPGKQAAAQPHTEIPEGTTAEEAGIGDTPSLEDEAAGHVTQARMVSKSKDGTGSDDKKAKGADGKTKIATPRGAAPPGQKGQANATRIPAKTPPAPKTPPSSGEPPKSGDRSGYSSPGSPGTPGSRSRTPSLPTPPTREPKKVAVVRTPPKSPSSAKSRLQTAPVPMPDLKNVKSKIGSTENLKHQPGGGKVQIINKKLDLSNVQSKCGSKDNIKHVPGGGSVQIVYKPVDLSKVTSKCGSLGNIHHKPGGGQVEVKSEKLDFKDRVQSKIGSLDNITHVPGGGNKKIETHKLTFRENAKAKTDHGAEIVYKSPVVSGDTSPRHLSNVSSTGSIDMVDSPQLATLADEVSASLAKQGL

Sequence of wild-type tau (Tau441) (human) (P10636 other isoform, or with tags, fused parts or gaps limits assumed): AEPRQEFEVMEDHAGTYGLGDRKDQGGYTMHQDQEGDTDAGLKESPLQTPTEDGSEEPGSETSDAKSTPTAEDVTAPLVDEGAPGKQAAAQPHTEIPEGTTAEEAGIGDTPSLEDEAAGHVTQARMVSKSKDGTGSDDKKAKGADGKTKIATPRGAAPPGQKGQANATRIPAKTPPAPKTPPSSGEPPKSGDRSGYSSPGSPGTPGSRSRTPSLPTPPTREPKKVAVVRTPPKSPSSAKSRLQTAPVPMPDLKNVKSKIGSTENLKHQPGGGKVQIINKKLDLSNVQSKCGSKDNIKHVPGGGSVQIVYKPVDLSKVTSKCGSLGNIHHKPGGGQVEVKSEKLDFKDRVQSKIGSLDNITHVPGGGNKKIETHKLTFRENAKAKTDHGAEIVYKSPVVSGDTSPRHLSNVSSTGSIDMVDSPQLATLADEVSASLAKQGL

Row | Substance | OD450 [1] | OD450 [2] | OD450 [3] | OD450 [4] | OD450 [5] | OD450 [6] | OD450 [7] | OD450 [8] | OD450 [9] | OD450 [10] | OD450 [11] | OD450 [12] | OD450 [13] | OD450 [14] | OD450 [15] | OD450 [16] | OD450 [17] [OD450] | OD450 [18] [OD450] | OD450 [19] [OD450] | OD450 [20] [OD450] | further results
1 | 2G9.F10 (BioLegend monoclonal murine anti-tau, 157-168; cat #824601) (antibody) | 2.9 | 0.1 | 0 | 2.8 | 0.3 | 0.9 | 0.1 | 3 | 2.4 | 3.1 | 2 | 0.3 | 0 | 0.7 | 1.6 | 3.1 | – | – | – | – | –
2 | 2G9.F10 (anti-tau, 157-168; BioLegend cat #824601) (antibody) | – | – | – | – | – | – | – | – | – | – | – | – | – | – | – | – | 0.2 | 0.1 | 2.2 | 0 | OD450 [21]: 1.6 OD450; OD450 [22]: 0.1 OD450; OD450 [23]: 0.5 OD450; OD450 [24]: 0.9 OD450
3 | 43D (BioLegend monoclonal murine anti-tau, 1-100; cat #816601) (antibody) | 3.2 | 0.7 | 0.3 | 3.2 | 1.7 | 3.1 | 0.8 | 3.1 | 3.2 | 3.1 | 3.2 | 1.9 | 0.3 | 3 | 3.2 | 3.2 | – | – | – | – | –
4 | 43D (anti-tau, 1-100; BioLegend cat #816601) (antibody) | – | – | – | – | – | – | – | – | – | – | – | – | – | – | – | – | 2 | 0.9 | 3.2 | 0 | OD450 [21]: 3.3 OD450; OD450 [22]: 0.4 OD450; OD450 [23]: 3 OD450; OD450 [24]: 3.2 OD450
5 | PHF1 antibody expressed from viral genome construct TAU_ITR70 (PHF-1 LF2AH) (antibody; other documents disagree on this pair) | – | – | – | – | – | – | – | – | – | – | – | – | – | – | – | – | – | – | – | – | anti-eTau ELISA antibody concentration [25]: 4280 ng/mL
6 | PHF1 antibody expressed from viral genome construct TAU_ITR85 (PHF-1 HF.F2AL) (antibody; other documents disagree on this pair) | – | – | – | – | – | – | – | – | – | – | – | – | – | – | – | – | – | – | – | – | anti-eTau ELISA antibody concentration [25]: 18.8 ng/mL
7 | PHF1 antibody expressed from viral genome construct TAU_ITR86 (PHF-1 LF2AH) (antibody; other documents disagree on this pair) | – | – | – | – | – | – | – | – | – | – | – | – | – | – | – | – | – | – | – | – | anti-eTau ELISA antibody concentration [25]: 1530 ng/mL
8 | PHF-6 (BioLegend monoclonal murine anti-tau phospho Th231; cat #828901) (antibody) | 3 | 0.2 | 0.1 | 2.9 | 0.4 | 1.3 | 0.2 | 3.1 | 2.7 | 3.1 | 2.3 | 0.5 | 0 | 1.1 | 1.9 | 3.2 | – | – | – | – | –
9 | PHF-6 (anti-tau phospho Th231; BioLegend cat #828901) (antibody) | – | – | – | – | – | – | – | – | – | – | – | – | – | – | – | – | 0 | 0 | 0.1 | 0 | OD450 [21]: 0 OD450; OD450 [22]: 0.1 OD450; OD450 [23]: 0 OD450; OD450 [24]: 0 OD450
10 | PHF-13 (BioLegend monoclonal murine anti-tau phospho Ser396; cat #829001) (antibody) | 1.2 | 0 | 0 | 0.7 | 0.1 | 0.1 | 0 | 1.2 | 0.6 | 2 | 0.3 | 0 | 0 | 0.1 | 0.3 | 1.9 | – | – | – | – | –
11 | PHF-13 (anti-tau phospho Ser396; BioLegend cat #829001) (antibody) | – | – | – | – | – | – | – | – | – | – | – | – | – | – | – | – | 0.1 | 0 | 0.1 | 0 | OD450 [21]: 0.1 OD450; OD450 [22]: 0 OD450; OD450 [23]: 0 OD450; OD450 [24]: 0.1 OD450
12 | Tau5 (BioLegend monoclonal murine anti-tau, 210-230; cat #806401) (antibody) | 3.2 | 0.4 | 0.1 | 3.2 | 0.8 | 2.1 | 0.4 | 3.2 | 3.2 | 3.2 | 2.9 | 0.9 | 0.1 | 1.7 | 2.6 | 3.2 | – | – | – | – | –
13 | Tau5 (anti-tau, 210-230; BioLegend cat #806401) (antibody) | – | – | – | – | – | – | – | – | – | – | – | – | – | – | – | – | 1.2 | 0.6 | 3.3 | 0.1 | OD450 [21]: 3.3 OD450; OD450 [22]: 0.2 OD450; OD450 [23]: 2.6 OD450; OD450 [24]: 3.3 OD450
14 | Tau12 (BioLegend monoclonal murine anti-tau, 6-18; cat #806501) (antibody) | 3.2 | 1 | 0.4 | 3.2 | 2.2 | 3.2 | 1 | 3.1 | 3.2 | 3.1 | 3.2 | 2.4 | 0.4 | 3.2 | 3.2 | 3.2 | – | – | – | – | –
15 | Tau12 (anti-tau, 6-18; BioLegend cat #806501) (antibody) | – | – | – | – | – | – | – | – | – | – | – | – | – | – | – | – | 2 | 0.9 | 3.3 | 0 | OD450 [21]: 3.3 OD450; OD450 [22]: 0.4 OD450; OD450 [23]: 3.1 OD450; OD450 [24]: 3.3 OD450
16 | Tau46 (BioLegend monoclonal murine anti-tau, 404-421; cat #806601) (antibody) | 2.3 | 0.1 | 0 | 2 | 0.2 | 0.4 | 0 | 2.6 | 1.7 | 2.9 | 1 | 0.1 | 0 | 0.4 | 0.9 | 2.8 | – | – | – | – | –
17 | Tau46 (anti-tau, 404-421; BioLegend cat #806601) (antibody) | – | – | – | – | – | – | – | – | – | – | – | – | – | – | – | – | 1 | 0.4 | 3.2 | 0.1 | OD450 [21]: 3.2 OD450; OD450 [22]: 0.2 OD450; OD450 [23]: 2 OD450; OD450 [24]: 3 OD450
18 | Tau-13 (BioLegend monoclonal murine anti-tau, 20-35; cat #835201) (antibody) | 3.2 | 0.6 | 0.2 | 3.2 | 1.4 | 3.1 | 0.7 | 3.2 | 3.2 | 3.2 | 3.2 | 1.8 | 0.2 | 2.8 | 3.2 | 3.2 | – | – | – | – | –
19 | Tau-13 (anti-tau, 20-35; BioLegend cat #835201) (antibody) | – | – | – | – | – | – | – | – | – | – | – | – | – | – | – | – | 1.2 | 0.5 | 3.2 | 0 | OD450 [21]: 3.2 OD450; OD450 [22]: 0.2 OD450; OD450 [23]: 2.3 OD450; OD450 [24]: 3.1 OD450
